Reference: paper PMC6745501, “Plant photoreceptors and their signaling components compete for COP1 binding via VP peptide motifs” (The EMBO Journal, 2019)
“And” between values parts separate entries of the source, which are not always exact repeats. Equal entries are not always repeated.

B1: UVR8^12–381: UVR8 β-propeller core, residues 12–381 (protein, UniProt Q9FN03 12-381, looked up, fragment)
chain: APPRKVLIISAGASHSVALLSGDIVCSWGRGEDGQLGHGDAEDRPSPTQLSALDGHQIVSVTCGADHTVAYSQSGMEVYSWGWGDFGRLGHGNSSDLFTPLPIKALHGIRIKQIACGDSHCLAVTMEGEVQSWGRNQNGQLGLGDTEDSLVPQKIQAFEGIRIKMVAAGAEHTAAVTEDGDLYGWGWGRYGNLGLGDRTDRLVPERVTSTGGEKMSMVACGWRHTISVSYSGALYTYGWSKYGQLGHGDLEDHLIPHKLEALSNSFISQISGGWRHTMALTSDGKLYGWGWNKFGQVGVGNNLDQCSPVQVRFPDDQKVVQVSCGWRHTLAVTERNNVFAWGRGTNGQLGIGESVDRNFPKIIEALSVDG
B2: CRY2: recombinant full-length Arabidopsis cryptochrome 2 (protein)
chain: MKMDKKTIVWFRRDLRIEDNPALAAAAHEGSVFPVFIWCPEEEGQFYPGRASRWWMKQSLAHLSQSLKALGSDLTLIKTHNTISAILDCIRVTGATKVVFNHLYDPVSLVRDHTVKEKLVERGISVQSYNGDLLYEPWEIYCEKGKPFTSFNSYWKKCLDMSIESVMLPPPWRLMPITAAAEAIWACSIEELGLENEAEKPSNALLTRAWSPGWSNADKLLNEFIEKQLIDYAKNSKKVVGNSTSLLSPYLHFGEISVRHVFQCARMKQIIWARDKNSEGEESADLFLRGIGLREYSRYICFNFPFTHEQSLLSHLRFFPWDADVDKFKAWRQGRTGYPLVDAGMRELWATGWMHNRIRVIVSSFAVKFLLLPWKWGMKYFWDTLLDADLECDILGWQYISGSIPDGHELDRLDNPALQGAKYDPEGEYIRQWLPELARLPTEWIHHPWDAPLTVLKASGVELGTNYAKPIVDIDTARELLAKAISRTREAQIMIGAAPDEIVADSFEALGANTIKEPGLCPSVSSNDQQVPSAVRYNGSKRVKPEEEEERDMKKSRGFDERELFSTAESSSSSSVFFVSQSCSLASEGKNLEGIQDSSDQITTSLGKNGCK
modifications: left off: His10, N-terminal, cleaved | Twin-Strep, N-terminal, cleaved
B3: UVR8^12–415: UVR8 core with C-terminus extended to include the VP peptide motif, residues 12–415 (protein)
chain: APPRKVLIISAGASHSVALLSGDIVCSWGRGEDGQLGHGDAEDRPSPTQLSALDGHQIVSVTCGADHTVAYSQSGMEVYSWGWGDFGRLGHGNSSDLFTPLPIKALHGIRIKQIACGDSHCLAVTMEGEVQSWGRNQNGQLGLGDTEDSLVPQKIQAFEGIRIKMVAAGAEHTAAVTEDGDLYGWGWGRYGNLGLGDRTDRLVPERVTSTGGEKMSMVACGWRHTISVSYSGALYTYGWSKYGQLGHGDLEDHLIPHKLEALSNSFISQISGGWRHTMALTSDGKLYGWGWNKFGQVGVGNNLDQCSPVQVRFPDDQKVVQVSCGWRHTLAVTERNNVFAWGRGTNGQLGIGESVDRNFPKIIEALSVDGASGQHIESSNIDPSSGKSWVSPAERYAVVPDETG
modifications: left off: His10, N-terminal, cleaved | Twin-Strep, N-terminal, cleaved

Assays:
COP1 WD40 domain [1] = assay: Grating-coupled interferometry (GCI) binding kinetics versus the COP1 WD40 domain; set-up: species or system Arabidopsis; settings: for Kd: ligand COP1 (2,000 pg/mm^2), analyte pre-monomerized by UV-B, highest concentration 2 μM, 150 mM NaCl, 20 mM HEPES 7.4, 2 mM BME, 25°C, 1:1 binding model, read-out: Kd (dissociation constant), + UV-B
Protocol: For CRY2 activation, proteins were diluted to their final assay concentrations (as indicated in the figure legends) in Eppendorf tubes and exposed to 10 min of fluorescent light on ice.
The Creoptix WAVE system (Creoptix AG), a label‐free surface biosensor, was used to perform GCI experiments. All experiments were performed on 2PCH or 4PCH WAVEchips (quasi‐planar polycarboxylate surface; Creoptix AG). After a borate buffer conditioning (100 mM sodium borate pH 9.0, 1 M NaCl; Xantec), COP1 (ligand) was immobilized on the chip surface using standard amine‐coupling: 7 min activation [1:1 mix of 400 mM N‐(3‐dimethylaminopropyl)‐N′‐ethylcarbodiimide hydrochloride and 100 mM N‐hydroxysuccinimide (both Xantec)], injection of COP1 (10 μg/ml) in 10 mM sodium acetate pH 5.0 (Sigma) until the desired density was reached, and final quenching with 1 M ethanolamine pH 8.0 for 7 min (Xantec). […] Blank injections were used for double referencing and a dimethyl sulfoxide (DMSO) calibration curve for bulk correction. Analysis and correction of the obtained data were performed using the Creoptix WAVEcontrol software (applied corrections: X and Y offset; DMSO calibration; double referencing), and a one‐to‐one binding model or a heterogenous ligand model with bulk correction was used to fit all experiments.

COP1 WD40 domain [2] = assay: Analytical size-exclusion chromatography binding assay; set-up: species or system Arabidopsis; settings: Superdex 200 Increase 10/300 GL, ~4 μM per protein, 150 mM NaCl, 20 mM HEPES 7.4, 2 mM BME, protein pre-monomerized by UV-B
Protocol: 500 μl of the respective protein solution or a mixture (~ 4 μM per protein) was loaded sequentially onto the column, and elution at 0.75 ml/min was monitored by UV absorbance at 280 nm.

| Molecule | Kd (COP1 WD40 domain [1]) | Interaction with the COP1 WD40 domain in size-exclusion chromatography, UV-B-activated (COP1 WD40 domain [2]) | Binding to the COP1 WD40 domain in the absence of supplemental fluorescent light (COP1 WD40 domain [1]; ligand COP1 (2000 pg/mm2), analyte + no additional light, highest concentration 14 μM) |
| --- | --- | --- | --- |
| B1 | ~500 nM and 583 nM | interacts | – |
| B2 | – | – | No binding was observed |
| B3 | 120 nM | – | – |
